# From PMC3418449
# Read-outs that look alike come from different tables or passages of the source.
# T1: GRK1 truncated at residue 535 (bovine, UniProt P28327 1-535)
# T1 sequence: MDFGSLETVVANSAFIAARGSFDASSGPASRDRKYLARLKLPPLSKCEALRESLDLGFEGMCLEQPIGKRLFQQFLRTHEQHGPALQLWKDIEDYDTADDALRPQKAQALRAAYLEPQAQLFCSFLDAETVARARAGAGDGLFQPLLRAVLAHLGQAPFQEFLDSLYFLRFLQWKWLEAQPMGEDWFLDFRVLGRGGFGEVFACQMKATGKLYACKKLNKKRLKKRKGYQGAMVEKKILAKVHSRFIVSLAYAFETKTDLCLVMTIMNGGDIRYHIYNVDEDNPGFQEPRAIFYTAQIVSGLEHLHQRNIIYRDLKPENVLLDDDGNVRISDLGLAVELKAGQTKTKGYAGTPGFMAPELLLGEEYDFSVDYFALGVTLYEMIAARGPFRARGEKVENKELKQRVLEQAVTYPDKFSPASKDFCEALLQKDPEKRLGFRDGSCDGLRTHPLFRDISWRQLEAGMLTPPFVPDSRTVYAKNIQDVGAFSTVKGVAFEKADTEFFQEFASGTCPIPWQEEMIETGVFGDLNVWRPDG
# Experiments:
# [1] = biological target: T2, GRK2 (S670A), flow cytometry and crystallography (bovine, UniProt P21146 1-689, S670A); test: competition
# [2] = biological target: T2, GRK2 (S670A), flow cytometry and …; test: competition; remark: listed apart in the source
# [3] = biological target: GRK2-H280A, flow cytometry (UniProt P21146 1-689, H280A); test: flow cytometry bead binding
# [4] = biological target: GRK2-D335A, flow cytometry (UniProt P21146 1-689, D335A); test: flow cytometry bead binding
# [5] = biological target: T2, GRK2 (S670A), flow cytometry and …; test: flow cytometry bead binding
# [6] = biological target: GRK2-FG-6A, flow cytometry (UniProt P21146 1-689, R392A;H394A;K395A;K397A;K399A;H400A); test: competition
# [7] = biological target: T2, GRK2 (S670A), flow cytometry and …; test: competition; remark: listed apart in the source
# [8] = biological target: GRK6 palmitoylation-deficient (human, UniProt P43250 1-576, C561S;C562S;C565S); test: competition
# [9] = biological target: T1, GRK1 truncated at residue 535; test: competition
# [10] = biological target: T2, GRK2 (S670A), flow cytometry and …; test: flow cytometry bead binding; remark: listed apart in the source
# [11] = biological target: T2, GRK2 (S670A), flow cytometry and …; test: flow cytometry bead binding; remark: listed apart in the source
# [12] = biological target: T2, GRK2 (S670A), flow cytometry and …; test: competition; remark: listed apart in the source
# T2 sequence (P21146 whole entry S670A): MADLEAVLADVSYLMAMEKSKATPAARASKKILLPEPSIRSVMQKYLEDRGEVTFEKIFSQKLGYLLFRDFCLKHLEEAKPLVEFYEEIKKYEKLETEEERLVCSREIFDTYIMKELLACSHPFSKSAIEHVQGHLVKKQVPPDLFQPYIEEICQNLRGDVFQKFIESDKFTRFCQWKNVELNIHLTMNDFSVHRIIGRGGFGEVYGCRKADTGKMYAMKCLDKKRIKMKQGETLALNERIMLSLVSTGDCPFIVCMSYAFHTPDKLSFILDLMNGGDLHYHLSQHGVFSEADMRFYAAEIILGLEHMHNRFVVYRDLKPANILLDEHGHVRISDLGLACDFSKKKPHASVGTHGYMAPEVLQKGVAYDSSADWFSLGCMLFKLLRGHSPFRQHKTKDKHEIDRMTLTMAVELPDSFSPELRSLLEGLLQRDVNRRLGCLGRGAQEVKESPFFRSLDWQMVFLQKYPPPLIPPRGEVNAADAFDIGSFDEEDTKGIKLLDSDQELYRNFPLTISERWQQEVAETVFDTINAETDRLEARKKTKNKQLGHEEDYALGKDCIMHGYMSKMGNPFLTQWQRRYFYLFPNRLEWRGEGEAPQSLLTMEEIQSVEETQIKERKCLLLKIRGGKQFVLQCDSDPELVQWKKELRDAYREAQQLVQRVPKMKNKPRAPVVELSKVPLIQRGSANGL
# GRK6 palmitoylation-deficient, sequence (P43250 whole entry C561S/C562S/C565S, the tested form may be a part): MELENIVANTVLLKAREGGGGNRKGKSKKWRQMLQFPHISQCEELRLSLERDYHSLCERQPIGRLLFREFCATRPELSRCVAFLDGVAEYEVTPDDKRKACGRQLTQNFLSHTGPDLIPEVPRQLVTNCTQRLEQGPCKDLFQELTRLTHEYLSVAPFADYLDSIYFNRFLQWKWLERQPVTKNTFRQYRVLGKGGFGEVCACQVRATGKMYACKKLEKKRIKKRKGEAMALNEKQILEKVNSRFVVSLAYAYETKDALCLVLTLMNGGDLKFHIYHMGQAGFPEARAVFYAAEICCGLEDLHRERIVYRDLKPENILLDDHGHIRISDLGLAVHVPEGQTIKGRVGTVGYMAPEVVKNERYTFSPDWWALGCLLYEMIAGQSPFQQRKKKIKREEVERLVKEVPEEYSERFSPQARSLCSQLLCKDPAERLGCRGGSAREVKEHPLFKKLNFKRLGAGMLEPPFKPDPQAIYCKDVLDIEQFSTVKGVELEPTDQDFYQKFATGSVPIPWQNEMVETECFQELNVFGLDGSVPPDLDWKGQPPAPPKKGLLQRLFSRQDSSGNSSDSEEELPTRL
# GRK2-D335A, flow cytometry, sequence (P21146 whole entry D335A): as the sequence (P21146 whole entry S670A) above, with D335A, A670S counted along it
# GRK2-H280A, flow cytometry, sequence (P21146 whole entry H280A): as the sequence (P21146 whole entry S670A) above, with H280A, A670S counted along it
# GRK2-FG-6A, flow cytometry, sequence (P21146 whole entry R392A/H394A/K395A/K397A/K399A/H400A): as the sequence (P21146 whole entry S670A) above, with R392A, H394A, K395A, K397A, K399A, H400A, A670S counted along it
binder,measurement,setting,value
GGCAGACCAUACGGGAGAGAAACUUGCC (ssRNA) [C13.28],IC50,[1],0.44 ± 0.19 nM
same,IC50,[2],1.5 ± 0.1 nM
same,binding result,[3],binds
same,binding result,[4],binds
same,Kd,[5],1.2 ± 0.6 nM
same,IC50,[6],510 ± 170 nM
same,IC50,[7],3.3 ± 0.3 nM
same,IC50,[8],210 ± 10 nM
same,IC50,[9],590 ± 160 nM
same,Kd,[10],3.8 ± 1.2 nM
CCAUACGGGAGAGAAACU (ssRNA) [C13.18],IC50,[1],100 ± 41 nM
same,Kd,[11],35 ± 5 nM
GGCAGACCAUCCGGGAGAGAAACUUGCC (structured_RNA) [C13.28A51C],binding result,[12],no binding
GGGUAGCACAGACCAUACGGGAGAGAAACUUGUGCAACCC (structured_RNA) [C13.40],IC50,[2],1.3 ± 0.1 nM
GGGCAGACCAUACGGGAGAGAAACUUGCC (structured_RNA) [C13.29],IC50,[2],0.91 ± 0.07 nM
GGCGACCAUACGGGAGAGAAACUGCC (structured_RNA) [C13.26],IC50,[2],0.9 ± 0.03 nM
AGACCAUACGGGAGAGAAACUU (structured_RNA) [C13.22],IC50,[2],46 ± 9 nM
